Reference: US20240254254

Experiments:
[1] = size exclusion chromatography (Superdex S200 Increase) in 1 mM ATP buffer
[2] = size exclusion chromatography (Superdex S200 Increase) in 1 mM ADP buffer
[3] = size exclusion chromatography in 1 mM ADP (monomer state)
[4] = size exclusion chromatography in 1 mM ATP (dimer state)

B1: TAP1 NBD of SEQ ID NO:87 with a peptide comprising a SpyTag3, TEV protease site and a His tag attached at the C-terminus (protein)
chain: MPPSGLLTPLHLEGLVQFQDVSFAYPNRPDVLVLQGLTFTLRPGEVTALVGPNGSGKSTVAALLQNLYQPTGGQLLLDGKPLPQYEHRYLHRQVAAVGQEPQVFGRSLQENIAYGLTQKPTMEEITAAAVKSGAHSFISGLPQGYDTEVDEAGSQLSGGQRQAVALARALIRKPSVLILDNATSALDAGNQLRVQRLLYESPERYSRSVLLITQHLSLVEQADHILFLEGGAIREGGTHQQLMEKKGSYWAMVQAPADAPE
- elution volume (SEC) in 1 mM ATP [1]: The ATP-containing sample eluted at a volume of 15.75 ml
- elution volume (SEC) in 1 mM ADP [2]: the ADP sample eluted at 16.81 ml

B2: human TAP1 NBD comprising N676G, S677N, Q680R, E682Q and Q683R substitutions, substitutions of cysteines with serines (SEQ ID NO:10) and a C-terminal His tag (protein)
chain: GLLTPLHLEGLVQFQDVSFAYPNRPDVLVLQGLTFTLRPGEVTALVGPNGSGKSTVAALLQNLYQPTGGQLLLDGKPLPQYEHRYLHRQVAAVGQEPQVFGRSLQENIAYGLTQKPTMEEITAAAVKSGAHSFISGLPQGYDTEVDEAGSQLSGGQRQAVALARALIRKPSVLILDNATSALDAGNQLRVQRLLYESPERYSRSVLLITQHLSLVEQADHILFLEGGAIREGGTHQQLMEKKGSYWAMVQAPADAPE
- effective molecular weight (SEC) in 1 mM ADP [3]: in the presence of ADP the protein chromatographs with an effective molecular weight of 37 kDa
- effective molecular weight (SEC) in 1 mM ATP [4]: in the presence of ATP the protein chromatographs with an effective molecular weight of 57 kDa
